{
  "source": "paper PMC4264850",
  "origin": "cited, not measured here",
  "biological_target": "EGFR (Homo sapiens) (UniProt P00533)",
  "data": [
    {"substance": "matuzumab", "values": [
      {"measurement": "Kd", "value": 0.34, "unit": "nM"}
    ]}
  ]
}
